Changes are numbered by the printed parent chain. In names and notes the source's numbering stands. Ends that are not written are not given here.

For assay [1], the target named is T1, His-tagged neuropilin-1 b1b2 domain (NRP-1 WT) (UniProt O14786 273-586, limits assumed, FAM (5-(and-6)-carboxyfluorescein) label, amine-reactive dye).
T1 construct: domain: b1b2 domain; also called WT NRP-1; wild type NRP-1; not shown: His-tag
T1 sequence (looked up): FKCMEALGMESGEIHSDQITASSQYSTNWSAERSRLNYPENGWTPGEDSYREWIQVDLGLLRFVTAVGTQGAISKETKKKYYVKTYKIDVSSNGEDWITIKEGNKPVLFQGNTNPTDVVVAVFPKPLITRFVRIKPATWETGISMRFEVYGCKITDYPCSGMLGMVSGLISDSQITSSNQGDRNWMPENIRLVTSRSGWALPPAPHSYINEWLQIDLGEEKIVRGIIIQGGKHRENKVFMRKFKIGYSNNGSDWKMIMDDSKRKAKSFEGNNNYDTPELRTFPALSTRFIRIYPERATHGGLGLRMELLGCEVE
In words: ELISA: immobilised peptide (10 µg/well), FAM-labelled NRP-1, fluorescence intensity. How it is done: (§1) In vitro binding of DCN-tCRK and peptides to NRP-1 was analyzed using ELISA analysis. 96-well, black FLUOTRAC™ 600, high binding plates (Greiner Bio-One, Kremsmünster, Austria) were coated with […] of 100 μg/ml DCN-tCRK in PBS at 4° C. overnight. 10 μg/well RPARPAR (SEQ ID NO: 25) and […] (SEQ ID NO: 26) peptides were coated in parallel as a positive and negative control, respectively. BSA was used as an immobilization control. The plates were washed 3 times with phosphate buffered saline (PBS) and blocked for 1 h at 37° C. with 300 μl of blocking solution (1×PBS, 1% BSA, 0.1% Tween-20). His-tagged neuropilin-1 b1b2 domain (NRP-1 WT) and triple mutant NS346A-E348A-T349A neuropilin-1 b1b2 domain (NRP-1 mutant) were expressed and purified at the Protein Production and Analysis Facility at the Sanford Burnham Prebys Medical Discovery Institute (La Jolla, Calif.) as described previously (Teesalu et al., 2009, PNAS 106:16157-16162). The recombinant proteins NRP1 WT, NRP1 mutant, and DCN-tCRK were FAM (5-(and-6)-Carboxyfluorescein, #90024, Biotium Inc, CA, USA) labeled by mixing 1:10 ratio of amine-reactive FAM dye (diluted in DMSO final concentration 0.2%) and protein. […] After adding 100 μl PBS in each well, the plate was immediately read with top read mode using a fluorescence reader (Flex Station II, Molecular Devices; peak excitation=485 nm, peak emission=530 nm, cut off=515).
Background: In an ELISA, binding on a coated surface is turned into a signal by an enzyme label.

Assay [2] addresses T2, 6xHistag-DCN-tCRK fusion protein (human, UniProt P07585 31-359, glycosaminoglycan chain (mostly chondroitin sulfate) attached to the DCN core, residue not stated; FAM-labelled in the cell assay only).
T2 construct: Produced in HEK293F cells; Immobilised unlabelled on the plate in the ELISA; also called tCRK-DCN; FAM-DCN-tCRK
In words: ELISA: immobilised DCN-tCRK (100 µg/ml coating), FAM-labelled NRP-1 mutant, fluorescence intensity, compared with BSA control. How it is done:
as §1

T2 sequence (P07585 other isoform, or with tags, fused parts or gaps): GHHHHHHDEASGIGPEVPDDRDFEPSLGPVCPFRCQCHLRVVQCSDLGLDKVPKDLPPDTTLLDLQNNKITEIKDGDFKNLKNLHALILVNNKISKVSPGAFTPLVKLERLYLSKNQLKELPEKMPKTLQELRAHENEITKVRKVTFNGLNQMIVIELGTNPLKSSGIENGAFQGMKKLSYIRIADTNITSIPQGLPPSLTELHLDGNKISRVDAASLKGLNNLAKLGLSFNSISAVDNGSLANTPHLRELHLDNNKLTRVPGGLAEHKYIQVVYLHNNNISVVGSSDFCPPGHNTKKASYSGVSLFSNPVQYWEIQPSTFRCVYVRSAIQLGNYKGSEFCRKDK

Consider RPARPARA (not fully specified, also called negative peptide) [RPARPARA peptide], for which the binding result in assay [1] is reported as “no binding (tested: 20 µg/well FAM-labelled NRP1 WT)”.

B1: triple mutant NS346A-E348A-T349A neuropilin-1 b1b2 domain (NRP-1 mutant) (receptor, UniProt O14786 273-586, looked up)
chain: T1 sequence (looked up) with S74A, E76A, T77A
modifications: FAM (5-(and-6)-carboxyfluorescein) label, amine-reactive dye
notes: domain: b1b2 domain; Printed as 'NS346A-E348A-T349A'; also called mutant NRP-1; not shown: His-tag
With B1, the binding result in assay [2] is listed as “no binding (tested: 20 µg/well FAM-labelled NRP1 mutant)”.
